Patent US7183387 (Genentech, dated 2007)

Tests used:
[1] = target: T1, human FcγRIIA-R131 α subunit extracellular domain-His6-GST fusion (human, UniProt P12318 34-217); test: ELISA, IgG complex, receptor coated
T1 construct: ECD-6His-GST fusion made in 293 cells; also called FcγRIIA-Arg131; not shown: glutathione S transferase (GST)
T1 sequence: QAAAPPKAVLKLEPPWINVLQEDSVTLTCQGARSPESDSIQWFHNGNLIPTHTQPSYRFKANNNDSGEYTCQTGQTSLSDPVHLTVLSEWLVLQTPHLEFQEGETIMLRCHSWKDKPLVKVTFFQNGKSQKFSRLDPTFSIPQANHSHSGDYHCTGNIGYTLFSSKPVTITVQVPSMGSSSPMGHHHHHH

[2] = target: T2, human FcγRIIA-H131 α subunit extracellular domain-His6-GST fusion (human, UniProt P12318 34-217); test: ELISA, IgG complex, receptor coated
T2 construct: ECD-6His-GST fusion made in 293 cells; also called FcγRIIA-His131; not shown: glutathione S transferase (GST)
T2 sequence: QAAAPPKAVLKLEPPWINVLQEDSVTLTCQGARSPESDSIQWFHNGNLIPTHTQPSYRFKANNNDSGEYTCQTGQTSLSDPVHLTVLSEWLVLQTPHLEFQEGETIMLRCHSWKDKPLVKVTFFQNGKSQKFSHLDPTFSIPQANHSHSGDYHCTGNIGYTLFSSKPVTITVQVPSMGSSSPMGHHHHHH

[3] = target: T3, human FcγRIIIA-F158 α subunit extracellular domain-His6-GST fusion (human, UniProt P08637 17-208); test: ELISA, IgG complex, receptor coated
T3 construct: ECD-6His-GST fusion made in 293 cells; also called FcγRIIIA-Phe158; not shown: glutathione S transferase (GST)
T3 sequence (P08637 other isoform, or with tags, fused parts or gaps, form in doubt): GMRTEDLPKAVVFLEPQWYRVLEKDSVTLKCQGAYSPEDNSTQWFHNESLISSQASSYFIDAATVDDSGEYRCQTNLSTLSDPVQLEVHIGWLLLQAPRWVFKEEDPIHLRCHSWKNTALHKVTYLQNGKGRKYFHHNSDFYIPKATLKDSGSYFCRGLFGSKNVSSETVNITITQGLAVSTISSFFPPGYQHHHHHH

[4] = target: T4, human FcγRIIA-H131 α subunit extracellular domain-His6-GST fusion protein (human, UniProt P12318 34-217); test: ELISA, IgG:IgE hexamer on coated FcγRIIA-H131-GST
T4 construct: also called FcγRIIA-His131; not shown: glutathione S-transferase (GST)
T4 sequence: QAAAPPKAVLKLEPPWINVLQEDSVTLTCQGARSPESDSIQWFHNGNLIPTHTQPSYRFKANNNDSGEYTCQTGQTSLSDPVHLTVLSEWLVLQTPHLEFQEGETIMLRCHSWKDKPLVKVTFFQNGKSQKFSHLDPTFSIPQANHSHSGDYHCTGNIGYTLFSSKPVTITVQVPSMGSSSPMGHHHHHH

[5] = target: T4, human FcγRIIA-H131 α subunit …; test: ELISA; binding ratio on FcγRIIA-H131 divided by that on FcγRIIA-R131
[6] = target: T5, human FcγRIIA-R131 α subunit extracellular domain-His6-GST fusion protein (human, UniProt P12318 34-217); test: ELISA, IgG:IgE hexamer on coated FcγRIIA-R131-GST; value carried over from Table 6, 7 or 8
T5 construct: ECD-6His-GST fusion made in 293 cells, coated on the plate; also called FcγRIIA-Arg131; not shown: glutathione S-transferase (GST)
T5 sequence: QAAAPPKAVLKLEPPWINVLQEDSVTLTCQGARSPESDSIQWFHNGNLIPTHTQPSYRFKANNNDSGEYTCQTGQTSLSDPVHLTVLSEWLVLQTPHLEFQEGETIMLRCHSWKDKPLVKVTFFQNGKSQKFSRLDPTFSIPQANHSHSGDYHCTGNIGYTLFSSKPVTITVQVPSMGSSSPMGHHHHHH

[7] = target: T5, human FcγRIIA-R131 α subunit …; test: ELISA, IgG:IgE hexamer on coated FcγRIIA-R131-GST; separate assays run together with the H131 assays

ratio of binding, variant/native IgG1 (mean) [1]	ratio of binding, variant/native IgG1 (mean) [2]	ratio of binding, variant/native IgG1 (mean) [3]	ratio of binding of the variant to that of native IgG1 [4]	H131/R131 [5]	ratio of binding of the variant to that of native IgG1 [6]	ratio of binding of the variant to that of native IgG1 [7]	Binder
1.13 ratio	1.04 ratio	1.1 ratio					anti-IgE E27 IgG1 variant K317(336)A (antibody, Fc variant of E27; also called IG2 46; Lys317Ala) heavy: not shown light: DIQLTQSPSSLSASVGDRVTITCRASKPVDGEGDSYLNWYQQKPGKAPKLLIYAASYLESGVPSRFSGSGSGTDFTLTISSLQPEDFATYYCQQSHEDPYTFGQGTKVEIKRTVAAPSVFIFPPSDEQLKSGTASVVCLLNNFYPREAKVQWKVDNALQSGNSQESVTEQDSKDSTYSLSSTLTLSKADYEKHKVYACEVTHQGLSSPVTKSFNRGEC
1.64 ratio	1.05 ratio	1.14 ratio					anti-IgE E27 IgG1 variant S267(280)A (antibody, Fc variant of E27; also called IG2 15; G15) heavy: not shown light: DIQLTQSPSSLSASVGDRVTITCRASKPVDGEGDSYLNWYQQKPGKAPKLLIYAASYLESGVPSRFSGSGSGTDFTLTISSLQPEDFATYYCQQSHEDPYTFGQGTKVEIKRTVAAPSVFIFPPSDEQLKSGTASVVCLLNNFYPREAKVQWKVDNALQSGNSQESVTEQDSKDSTYSLSSTLTLSKADYEKHKVYACEVTHQGLSSPVTKSFNRGEC
			1.1 ratio (variant/native IgG1)	0.71 ratio (H131 value/R131 value)	1.52 ratio (variant/native IgG1)	1.53 ratio (variant/native IgG1)	anti-IgE E27 IgG1 variant Ser267Ala (antibody, also called S267(280)A; S280A) heavy: not shown light: DIQLTQSPSSLSASVGDRVTITCRASKPVDGEGDSYLNWYQQKPGKAPKLLIYAASYLESGVPSRFSGSGSGTDFTLTISSLQPEDFATYYCQQSHEDPYTFGQGTKVEIKRTVAAPSVFIFPPSDEQLKSGTASVVCLLNNFYPREAKVQWKVDNALQSGNSQESVTEQDSKDSTYSLSSTLTLSKADYEKHKVYACEVTHQGLSSPVTKSFNRGEC
1.54 ratio	1.07 ratio	0.84 ratio					anti-IgE E27 IgG1 variant S267(280)A/H268(281)A (antibody, Fc variant of E27; also called IG2 96; Ser267Ala/His268Ala) heavy: not shown light: DIQLTQSPSSLSASVGDRVTITCRASKPVDGEGDSYLNWYQQKPGKAPKLLIYAASYLESGVPSRFSGSGSGTDFTLTISSLQPEDFATYYCQQSHEDPYTFGQGTKVEIKRTVAAPSVFIFPPSDEQLKSGTASVVCLLNNFYPREAKVQWKVDNALQSGNSQESVTEQDSKDSTYSLSSTLTLSKADYEKHKVYACEVTHQGLSSPVTKSFNRGEC
1.19 ratio	1.37 ratio	1.12 ratio					anti-IgE E27 IgG1 variant T307(326)A (antibody, Fc variant of E27; also called IG2 41; Thr307Ala) heavy: not shown light: DIQLTQSPSSLSASVGDRVTITCRASKPVDGEGDSYLNWYQQKPGKAPKLLIYAASYLESGVPSRFSGSGSGTDFTLTISSLQPEDFATYYCQQSHEDPYTFGQGTKVEIKRTVAAPSVFIFPPSDEQLKSGTASVVCLLNNFYPREAKVQWKVDNALQSGNSQESVTEQDSKDSTYSLSSTLTLSKADYEKHKVYACEVTHQGLSSPVTKSFNRGEC
1.21 ratio	0.59 ratio	0.09 ratio					anti-IgE E27 IgG1 variant S267(280)G (antibody, Fc variant of E27; also called IG2 189; Ser267Gly) heavy: not shown light: DIQLTQSPSSLSASVGDRVTITCRASKPVDGEGDSYLNWYQQKPGKAPKLLIYAASYLESGVPSRFSGSGSGTDFTLTISSLQPEDFATYYCQQSHEDPYTFGQGTKVEIKRTVAAPSVFIFPPSDEQLKSGTASVVCLLNNFYPREAKVQWKVDNALQSGNSQESVTEQDSKDSTYSLSSTLTLSKADYEKHKVYACEVTHQGLSSPVTKSFNRGEC
			0.54 ratio (variant/native IgG1)	0.47 ratio (H131 value/R131 value)	1.18 ratio (variant/native IgG1)		anti-IgE E27 IgG1 variant Ser267Gly (antibody, also called S267(280)G; IG2 189) heavy: not shown light: DIQLTQSPSSLSASVGDRVTITCRASKPVDGEGDSYLNWYQQKPGKAPKLLIYAASYLESGVPSRFSGSGSGTDFTLTISSLQPEDFATYYCQQSHEDPYTFGQGTKVEIKRTVAAPSVFIFPPSDEQLKSGTASVVCLLNNFYPREAKVQWKVDNALQSGNSQESVTEQDSKDSTYSLSSTLTLSKADYEKHKVYACEVTHQGLSSPVTKSFNRGEC
1.12 ratio	1.16 ratio	0.87 ratio					anti-IgE E27 IgG1 variant K320(339)A (antibody, Fc variant of E27; also called IG2 48; Lys320Ala) heavy: not shown light: DIQLTQSPSSLSASVGDRVTITCRASKPVDGEGDSYLNWYQQKPGKAPKLLIYAASYLESGVPSRFSGSGSGTDFTLTISSLQPEDFATYYCQQSHEDPYTFGQGTKVEIKRTVAAPSVFIFPPSDEQLKSGTASVVCLLNNFYPREAKVQWKVDNALQSGNSQESVTEQDSKDSTYSLSSTLTLSKADYEKHKVYACEVTHQGLSSPVTKSFNRGEC
			1.08 ratio (variant/native IgG1)	0.99 ratio (H131 value/R131 value)	1.13 ratio (variant/native IgG1)	1.1 ratio (variant/native IgG1)	anti-IgE E27 IgG1 variant Lys317Ala (antibody, also called K317(336)A; IG2 46) heavy: not shown light: DIQLTQSPSSLSASVGDRVTITCRASKPVDGEGDSYLNWYQQKPGKAPKLLIYAASYLESGVPSRFSGSGSGTDFTLTISSLQPEDFATYYCQQSHEDPYTFGQGTKVEIKRTVAAPSVFIFPPSDEQLKSGTASVVCLLNNFYPREAKVQWKVDNALQSGNSQESVTEQDSKDSTYSLSSTLTLSKADYEKHKVYACEVTHQGLSSPVTKSFNRGEC
			0.97 ratio (variant/native IgG1)	0.75 ratio (H131 value/R131 value)	1.21 ratio (variant/native IgG1)	1.3 ratio (variant/native IgG1)	anti-IgE E27 IgG1 variant His268Ala (antibody, also called H268(281)A; H281A) heavy: not shown light: DIQLTQSPSSLSASVGDRVTITCRASKPVDGEGDSYLNWYQQKPGKAPKLLIYAASYLESGVPSRFSGSGSGTDFTLTISSLQPEDFATYYCQQSHEDPYTFGQGTKVEIKRTVAAPSVFIFPPSDEQLKSGTASVVCLLNNFYPREAKVQWKVDNALQSGNSQESVTEQDSKDSTYSLSSTLTLSKADYEKHKVYACEVTHQGLSSPVTKSFNRGEC
1.12 ratio	1.04 ratio	0.84 ratio					anti-IgE E27 IgG1 variant V305(324)A (antibody, Fc variant of E27; also called IG2 40; Val305Ala) heavy: not shown light: DIQLTQSPSSLSASVGDRVTITCRASKPVDGEGDSYLNWYQQKPGKAPKLLIYAASYLESGVPSRFSGSGSGTDFTLTISSLQPEDFATYYCQQSHEDPYTFGQGTKVEIKRTVAAPSVFIFPPSDEQLKSGTASVVCLLNNFYPREAKVQWKVDNALQSGNSQESVTEQDSKDSTYSLSSTLTLSKADYEKHKVYACEVTHQGLSSPVTKSFNRGEC
1.15 ratio	1.11 ratio	1.07 ratio					anti-IgE E27 IgG1 variant N315(334)A (antibody, Fc variant of E27; also called IG2 45; Asn315Ala) heavy: not shown light: DIQLTQSPSSLSASVGDRVTITCRASKPVDGEGDSYLNWYQQKPGKAPKLLIYAASYLESGVPSRFSGSGSGTDFTLTISSLQPEDFATYYCQQSHEDPYTFGQGTKVEIKRTVAAPSVFIFPPSDEQLKSGTASVVCLLNNFYPREAKVQWKVDNALQSGNSQESVTEQDSKDSTYSLSSTLTLSKADYEKHKVYACEVTHQGLSSPVTKSFNRGEC
			1.1 ratio (variant/native IgG1)	0.99 ratio (H131 value/R131 value)	1.15 ratio (variant/native IgG1)	1.11 ratio (variant/native IgG1)	anti-IgE E27 IgG1 variant Asn315Ala (antibody, also called IG2 45) heavy: not shown light: DIQLTQSPSSLSASVGDRVTITCRASKPVDGEGDSYLNWYQQKPGKAPKLLIYAASYLESGVPSRFSGSGSGTDFTLTISSLQPEDFATYYCQQSHEDPYTFGQGTKVEIKRTVAAPSVFIFPPSDEQLKSGTASVVCLLNNFYPREAKVQWKVDNALQSGNSQESVTEQDSKDSTYSLSSTLTLSKADYEKHKVYACEVTHQGLSSPVTKSFNRGEC
